Measured values reported in the RNAGym collection of RNA variant scans (doi:10.7554/elife.80360).

B1: CPEB3 Ribozyme (parent)
chain: GGGGGCCACAGCAGAAGCGUUCACGUCGCGGCCCCUGUCAGAUUCUGGUGAAUCUGCGAAUUCUGCUGU

Variants of: B1
Assay: self-cleavage, relative activity (ratio to wild type); higher = more cleavage; co-transcriptional

| Variant | self-cleavage |
| --- | --- |
| G17C U43A | 0.0954 |
| G17C U43G | 0.0986 |
| G17C U43C | 0.111 |
| A16U G48A | 0.862 |
| A16U G48C | 0.889 |
| A16U C35G | 0.213 |
| A16U C35U | 0.768 |
| A16U C35A | 0.159 |
| G17C C29A | 0.367 |
| G17A G41U | 0.183 |
| G17A G41A | 0.133 |
| G17A G41C | 0.141 |
| G17C G37A | 0.0971 |
| G17C G37C | 0.0977 |
| A16U C32U | 0.936 |
| A16U C32G | 0.24 |
| A16U U62G | 0.625 |
| A16U U62C | 0.734 |
| G17A G58U | 0.539 |
| G17A G58C | 0.454 |
| G17A G58A | 0.259 |
| G17C G56U | 0.115 |
| G17C G56A | 0.103 |
| G17C G56C | 0.105 |

| Variant | self-cleavage |
| --- | --- |
| A16U U49C | 0.834 |
| A16U U49A | 0.96 |
| A16U U49G | 0.817 |
| G17C A23G | 0.116 |
| G17C A23U | 0.103 |
| G17C A23C | 0.178 |
| G17A G68C | 0.704 |
| G17A G68U | 0.751 |
| G17A G68A | 0.843 |
| G17A G30U | 0.176 |
| G17A G30A | 0.164 |
| G17C U64A | 0.112 |
| G17C U64G | 0.171 |
| G17C U64C | 0.203 |
| G17A A23U | 0.585 |
| G17A A23C | 0.483 |
| G17A A23G | 0.243 |
| G17A G50C | 0.387 |
| G17A G50U | 0.547 |
| G17A G50A | 0.488 |
| A16U A23U | 0.867 |
| A16U A23G | 0.528 |
| G17C G19A | 0.103 |
| G17C G19U | 0.0627 |

| Variant | self-cleavage |
| --- | --- |
| G17C G19C | 0.118 |
| G17C A60C | 0.109 |
| G17C A60G | 0.127 |
| G17C A60U | 0.183 |
| A16U C22A | 0.12 |
| G17C A59U | 0.0945 |
| G17A C39U | 0.213 |
| G17A C39A | 0.201 |
| G17A C39G | 0.216 |
| G17C A42C | 0.14 |
| G17C A42U | 0.151 |
| A16G U61A | 0.833 |
| A16G U61G | 0.732 |
| A16G U61C | 0.951 |
| A16U G41C | 0.366 |
| G17C C24A | 0.141 |
| G17C C24U | 0.109 |
| G17C C24G | 0.208 |
| G17A A52U | 0.519 |
| G17A A52G | 0.596 |
| A16U A52G | 0.888 |
| A16U G68C | 0.875 |
| A16U G68U | 0.948 |
| G17A G48C | 0.599 |

| Variant | self-cleavage |
| --- | --- |
| G17A U64G | 0.256 |
| G17A U64A | 0.211 |
| G17A U64C | 0.242 |
| G17A U53A | 0.237 |
| G17A U53G | 0.38 |
| G17A U53C | 0.22 |
| G17A A59G | 0.691 |
| G17C A40C | 0.16 |
| G17C A40G | 0.124 |
| G17C A40U | 0.14 |
| G17C G50U | 0.157 |
| G17C G50A | 0.142 |
| G17A C34U | 0.524 |
| G17A C34A | 0.2 |
| G17A A60U | 0.203 |
| A16G U62C | 0.788 |
| A16G U62A | 0.712 |
| G17C U21C | 0.0625 |
| G17C U21G | 0.229 |
| A16U U55G | 0.335 |
| G17A U61G | 0.237 |
| A16G U69G | 1.04 |
| A16G U69A | 1.04 |
| A16U C39U | 0.533 |

| Variant | self-cleavage |
| --- | --- |
| A16U C39A | 0.317 |
| A16U C39G | 0.693 |
| G17C G28C | 0.129 |
| G17C G28U | 0.111 |
| G17C G28A | 0.127 |
| A16U G25C | 0.194 |
| A16U A51U | 0.853 |
| A16U A51G | 0.841 |
| G17A C35G | 0.179 |
| G17A C35A | 0.136 |
| A16U U64A | 0.588 |
| A16U U64G | 0.545 |
| A16U U64C | 0.463 |
| G17C U61C | 0.118 |
| G17C U61G | 0.205 |
| G17A G19C | 0.095 |
| G17A G19A | 0.154 |
| G17A G19U | 0.114 |
| A16U U43G | 0.395 |
| A16U U43A | 0.615 |
| G17A A40C | 0.145 |
| G17A A40U | 0.2 |
| A16U C24A | 0.23 |
| G17C U26A | 0.156 |

| Variant | self-cleavage |
| --- | --- |
| G17C U26G | 0.175 |
| G17C U26C | 0.145 |
| A16U U44A | 0.729 |
| A16U U44C | 0.703 |
| G17A C63G | 0.257 |
| G17A C63A | 0.171 |
| A16U G56C | 0.82 |
| A16U G56U | 0.624 |
| A16U G56A | 0.616 |
| A16G U44A | 0.835 |
| A16U G37U | 0.173 |
| A16U G37A | 0.154 |
| A16G U43C | 0.791 |
| G17A G25C | 0.147 |
| G17A G25A | 0.201 |
| G17A G25U | 0.117 |
| G17C C22A | 0.117 |
| G17C C22G | 0.156 |
| A16U G30C | 0.189 |
| A16U G30A | 0.22 |
| A16G U53C | 0.622 |
| A16U U36C | 0.438 |
| A16U U36A | 0.166 |
| A16U A40G | 0.754 |

| Variant | self-cleavage |
| --- | --- |
| G17A U26G | 0.413 |
| G17A U26C | 0.335 |
| G17C C63U | 0.139 |
| G17C C63G | 0.103 |
| G17A U46C | 0.417 |
| G17C U67C | 0.145 |
| G17C U67G | 0.209 |
| A16U C45A | 0.842 |
| G17A G31C | 0.135 |
| G17A G31U | 0.113 |
| A16U G17A | 0.203 |
| A16U G17U | 0.147 |
| A16U C63G | 0.361 |
| A16U C29G | 0.243 |
| A16U C29A | 0.288 |
| G17C G30A | 0.154 |
| G17C G30C | 0.134 |
| G17C G30U | 0.206 |
| G17C U38G | 0.101 |
| G17C U38C | 0.137 |
| G17C C35A | 0.135 |
| A16U U53A | 0.66 |
| A16U U53G | 0.549 |
